Data on 23 variants can be found in the supplement of paper PMC7125110.

± gives the standard error. Variants at the floor of the assay were thinned out.

The chains are these.
B1: glmS ribozyme (parent)
chain: AUAAAAGCGCCAGAACUACAGAAAUGUAGUUGACGAGGAGGAGGUUUAUCGAAUUUUCGGCGGAUGCCUCCAAA

What all share (settings): with glucosamine-6-phosphate
Series [1] covers variants of B1. As to the kind of experiment: self-cleavage kobs at 640 uM GlcN6P; higher = faster cleavage; RNA array. The essentials: (§1)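 Weighted Michaelis–Menten fits across concentrations supplied kcat and KM, based on kobs from one- or two-exponential decay fits to normalised per-tile medians. The data came from barcoded ribozyme variants transcribed in situ by E. coli RNA polymerase on sequenced MiSeq chips and tracked at 37 °C by a hybridised Cy3 probe. Glucosamine-6-phosphate (40 μM to 10 mM) in HEPES/KCl/Mg(OAc)2 buffer was flowed in.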

Series [2] covers variants of B1. As to the kind of experiment: self-cleavage kobs at 2500 uM GlcN6P; higher = faster cleavage; RNA array. An outline of the steps: as §1
The variants in series [3] derive from B1. As to the kind of experiment: self-cleavage kobs at 10000 uM GlcN6P; higher = faster cleavage; RNA array. An outline of the steps: as §1

For the variant AUAAAAGAGCCAGAGCUACAGAAAUGUAGUUGACGAGGAGGAGAUUUAUCGAAUUUUCGGUGGAUGCCUCAAAA, the “self-cleavage kobs at 640 uM GlcN6P” value with glucosamine-6-phosphate [1] was below 1e-05 s⁻¹. For the same variant, the “self-cleavage kobs at 2500 uM GlcN6P” value with glucosamine-6-phosphate [2] was below 1e-05 s⁻¹.

With AUAAAAGCACCAGAACUACAGAAAUGUAGUUGACGAGGAGGAGCUUUAUCGAGUUUACGGCGGAUGCCUCCAAA, the “self-cleavage kobs at 640 uM GlcN6P” value with glucosamine-6-phosphate [1] was below 1e-05 s⁻¹. In addition, in the series with glucosamine-6-phosphate [2], the “self-cleavage kobs at 2500 uM GlcN6P” value is below 1e-05 s⁻¹. In addition, the “self-cleavage kobs at 10000 uM GlcN6P” value in the series with glucosamine-6-phosphate [3] is below 1e-05 s⁻¹.

Turning to AUAAAAGAGCCAGAACUACAGAAAUGUAGUUGACGAGGAGGACGUUUAUCGAAUUUUCGGAGGAUGCCUCCAAA, the “self-cleavage kobs at 640 uM GlcN6P” value with glucosamine-6-phosphate [1] is below 1e-05 s⁻¹.

With AUAAAAGCGCCAAAACUACAGAAAUGUAGUUGACGAGGAGGAGGUUUAUCGUAUUUUCGGCGGAUGCCUGCAAA, the “self-cleavage kobs at 640 uM GlcN6P” value with glucosamine-6-phosphate [1] is below 1e-05 s⁻¹.

As for AUAAAAGCGCCAGAACUACAGAAAUGUAGUUGACGAGGAGCAGGUUUAUCGAAUUUUCGGCGGCUGACUCCAAA, the “self-cleavage kobs at 640 uM GlcN6P” value in the series with glucosamine-6-phosphate [1] was below 1e-05 s⁻¹.

As for AUAAAAGCGCCAGAACUACAGAAAUGUAAUUGACGAGGAGGAGGUUUAUUGAAUUUUCGGCGGAUGCAUCCAAA, in the series with glucosamine-6-phosphate [1], the “self-cleavage kobs at 640 uM GlcN6P” value turned out to be 4.21e-05 ± 1.6e-05 s⁻¹.

As to AUAAAAGCGCCAGAGCUACAGAAAUGUAGUUGACGAGGAAGAGGUUUAUCGAAUUUUCUGCGGAUGGCUCCAAA, the “self-cleavage kobs at 640 uM GlcN6P” value in the series with glucosamine-6-phosphate [1] is below 1e-05 s⁻¹. In the series with glucosamine-6-phosphate [2], the “self-cleavage kobs at 2500 uM GlcN6P” value is below 1e-05 s⁻¹.

Consider AUAAAAGCGCCAGAACUACAGAAAUGUAGUUGACGAGGAGGAGGUUUAUCGAAUUAUGAACGGAUGCCUCCAAA, for which the “self-cleavage kobs at 640 uM GlcN6P” value in the series with glucosamine-6-phosphate [1] was below 1e-05 s⁻¹. The “self-cleavage kobs at 2500 uM GlcN6P” value in the series with glucosamine-6-phosphate [2] was below 1e-05 s⁻¹.

In the case of AUAAAAGCGCCAGAACUACAGAAAUGUAGUUGACGAGGAGGAGGUUUAUCGAAUUUUCGGCUUAUCCCUCCAAA, in the series with glucosamine-6-phosphate [1], the “self-cleavage kobs at 640 uM GlcN6P” value is below 1e-05 s⁻¹. Further, the “self-cleavage kobs at 2500 uM GlcN6P” value with glucosamine-6-phosphate [2] was below 1e-05 s⁻¹.

Consider AUAAAAGCGCCAGGACUACAGAAAUGUAGUUGACGAGGAGGAGGUUUAUCGAACUUUCGGGCGAUGCCUCCAAA, for which, in the series with glucosamine-6-phosphate [1], the “self-cleavage kobs at 640 uM GlcN6P” value was below 1e-05 s⁻¹.

Take AUAAAAGCGCCAGAACUACAGAAAUGUAGUUGACGACGAGGAGGUUUACCGAAUUUUCGGCGGAUGCCUCCAAA: the “self-cleavage kobs at 640 uM GlcN6P” value with glucosamine-6-phosphate [1] is below 1e-05 s⁻¹. Besides, the “self-cleavage kobs at 2500 uM GlcN6P” value in the series with glucosamine-6-phosphate [2] is below 1e-05 s⁻¹. In the series with glucosamine-6-phosphate [3], the “self-cleavage kobs at 10000 uM GlcN6P” value was below 1e-05 s⁻¹.

AUAAAAGCGCCAGAACUACAGAAAUGUAGUUGACGAAGAUGAGGUUUAUCGAAUGUUCGGCGGAUGCCUCCAAA: the “self-cleavage kobs at 640 uM GlcN6P” value with glucosamine-6-phosphate [1] stood at 6.13e-05 ± 2.5e-05 s⁻¹. The “self-cleavage kobs at 2500 uM GlcN6P” value with glucosamine-6-phosphate [2] came to 6.99e-05 ± 1.6e-05 s⁻¹.

On to AUAAAAGCGCCAGUACUACAGAAAUGUAAUUGACGAGGAGGAGGUUUAUCGAAUUUUCGGCAGAUGCCGCCAAA, for which the “self-cleavage kobs at 640 uM GlcN6P” value in the series with glucosamine-6-phosphate [1] came to 7.37e-05 ± 2.9e-05 s⁻¹.

In the case of AUAAAAGCGACAGAACUACAGAAAUGUAGUUGACGAGGAGGGGGUUCAUGGAAUUUUCGGCGGAUGCCUUCAAA, the “self-cleavage kobs at 640 uM GlcN6P” value with glucosamine-6-phosphate [1] is below 1e-05 s⁻¹.

As to AUAAAAGCGCUAGAACUACAGAAAUGUAGUUGACGAGGAGUAGGUUUGUCGAAUUUUCGGCGGAUGCCUCCAAA, the “self-cleavage kobs at 640 uM GlcN6P” value in the series with glucosamine-6-phosphate [1] was below 1e-05 s⁻¹.

On to AUAAAAGCGCCAGAACUACAGAAAUGUAGUUGACGAUGAGGAGGUUUAUCGAAUUUUCGGGGGAUGCCUCCAAA, for which the “self-cleavage kobs at 640 uM GlcN6P” value with glucosamine-6-phosphate [1] was below 1e-05 s⁻¹. The “self-cleavage kobs at 10000 uM GlcN6P” value with glucosamine-6-phosphate [3] is below 1e-05 s⁻¹.

In the case of AUAAAAGCGCCAGAACUACAGAAAUGUAGUUGACGAGGAGGAAGUUUUUAGAAUUUUCGGCGGAUGCCUCCAAA, in the series with glucosamine-6-phosphate [1], the “self-cleavage kobs at 640 uM GlcN6P” value was below 1e-05 s⁻¹. Besides, the “self-cleavage kobs at 2500 uM GlcN6P” value in the series with glucosamine-6-phosphate [2] was below 1e-05 s⁻¹.

Take AUAAAAGCGCCAGAAUUACAGAAAUGUAGUUGACGAGGAGGAGGUUUAUCGAAUUUUUGGCGGAUGUCUUCAAA: in the series with glucosamine-6-phosphate [1], the “self-cleavage kobs at 640 uM GlcN6P” value was 0.000267 ± 6.7e-05 s⁻¹. Moreover, the “self-cleavage kobs at 2500 uM GlcN6P” value in the series with glucosamine-6-phosphate [2] stood at 6.37e-05 ± 2.5e-05 s⁻¹.

In the case of AUAAAAGCGCCGGAACUACAGAAAUGUAGUUGACGAGGAGGGGGUUUAUCGAAUUUUCGGUGUAUGCCUCCAAA, in the series with glucosamine-6-phosphate [1], the “self-cleavage kobs at 640 uM GlcN6P” value is below 1e-05 s⁻¹.

For AUAAAAGCGCCAGAACUACAGAAAUGUAGUUGACGGGGAGGAGGAUUACCGAAUUUUCGGCGGAUGCCUCCAAA, in the series with glucosamine-6-phosphate [1], the “self-cleavage kobs at 640 uM GlcN6P” value is below 1e-05 s⁻¹. For the same variant, in the series with glucosamine-6-phosphate [2], the “self-cleavage kobs at 2500 uM GlcN6P” value was below 1e-05 s⁻¹.

As to AUAAAAGCGCCAGAACUACAGAAAUGUAGUUGACGAGGAGGAGGUUUAUCGAAUUUUCGGCGGAAACCUCUAAA, the “self-cleavage kobs at 640 uM GlcN6P” value with glucosamine-6-phosphate [1] came out at 0.000198 ± 4.2e-05 s⁻¹. Also, the “self-cleavage kobs at 2500 uM GlcN6P” value in the series with glucosamine-6-phosphate [2] is 0.000397 ± 0.0001 s⁻¹.

Take AUAAAAGCGCCAGAACUACAGAAAUGUAGUCGACGAGGAGGAGGUUUAUCGCAUUUUCGGCGGAUGCCUCAAAA: the “self-cleavage kobs at 640 uM GlcN6P” value in the series with glucosamine-6-phosphate [1] is below 1e-05 s⁻¹.

As for AUAAAUGCGCCAGAACUACAGAAAUGUAGUUGACGAGGAGGAGUUUUAUCUAAAUUUCGGCGGAUGCCUCCAAA, the “self-cleavage kobs at 640 uM GlcN6P” value with glucosamine-6-phosphate [1] was below 1e-05 s⁻¹. Besides, the “self-cleavage kobs at 2500 uM GlcN6P” value with glucosamine-6-phosphate [2] was below 1e-05 s⁻¹.
